From patent publication US20020111306A1
“And” between values parts separate entries of the source, which are not always exact repeats. Equal entries are not always repeated.

Legend:
[1] = biological target: human MCH1 receptor (MCH1) encoded by plasmid TL231 (pEXJ.HR-TL231) (human); experiment: cell-based or functional assay
[2] = biological target: human MCH1 receptor (MCH1) encoded by plasmid TL231 (pEXJ.HR-TL231) (human); experiment: radioligand binding, membranes of Cos-7 cells transfected with MCH1, 0.1 nM radioligand, filtration
[3] = biological target: human MCH1 receptor (MCH1) encoded by plasmid TL231 (pEXJ.HR-TL231) (human); experiment: radioligand binding, membranes of Cos-7 cells transfected with MCH1, 0.1 nM radioligand, filtration; nonspecific binding defined with 10 µM unlabeled MCH
[4] = biological target: human MCH1 receptor (MCH1) encoded by plasmid TL231 (pEXJ.HR-TL231) (human); experiment: cell-based or functional assay; remark: listed apart in the source
[5] = biological target: mutant (short form) human MCH1 receptor encoded by plasmid BO120 (human); experiment: cell-based or functional assay
[6] = biological target: mutant human MCH1 receptor encoded by plasmid R114 (M6A, M70A) (human) (UniProt Q99705); experiment: cell-based or functional assay
UniProt Q99705, sequence (Q99705 whole entry, stated change not applied): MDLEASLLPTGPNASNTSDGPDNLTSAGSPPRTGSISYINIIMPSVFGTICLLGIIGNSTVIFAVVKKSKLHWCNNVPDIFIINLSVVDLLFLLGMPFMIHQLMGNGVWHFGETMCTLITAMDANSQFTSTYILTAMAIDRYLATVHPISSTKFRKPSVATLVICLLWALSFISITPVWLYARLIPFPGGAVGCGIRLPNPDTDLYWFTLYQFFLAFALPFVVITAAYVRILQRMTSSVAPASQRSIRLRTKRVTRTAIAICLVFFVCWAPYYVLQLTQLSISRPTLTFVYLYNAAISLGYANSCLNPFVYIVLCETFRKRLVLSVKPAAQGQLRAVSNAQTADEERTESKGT

human MCH1 receptor (MCH1) encoded by plasmid TL231 (pEXJ.HR-TL231) (human), sequence (chain, as listed by the source limits assumed): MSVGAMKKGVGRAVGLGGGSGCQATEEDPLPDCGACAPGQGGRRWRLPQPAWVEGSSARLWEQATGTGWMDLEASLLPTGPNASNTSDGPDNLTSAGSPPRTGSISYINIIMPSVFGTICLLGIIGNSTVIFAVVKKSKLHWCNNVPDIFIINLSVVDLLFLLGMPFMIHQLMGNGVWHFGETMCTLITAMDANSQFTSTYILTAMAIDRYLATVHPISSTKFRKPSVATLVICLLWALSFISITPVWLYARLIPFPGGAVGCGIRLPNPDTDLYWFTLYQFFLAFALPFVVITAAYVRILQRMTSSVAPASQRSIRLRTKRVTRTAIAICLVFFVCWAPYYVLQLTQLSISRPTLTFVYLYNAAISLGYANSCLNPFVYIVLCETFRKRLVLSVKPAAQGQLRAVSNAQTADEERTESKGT

Molecule: Phe^13,Tyr^19-MCH (from UniProt P20382 147-165) (peptide)
- EC50 of extracellular acidification rate (microphysiometer), CHO cells transiently transfected with MCH1 [1]: 51.8 nM

Molecule: [^125I]Phe^13,Tyr^19-MCH (from UniProt P20382 147-165) (peptide)
- specific binding as percent of total binding (% of total binding) [2]: 70
- specific binding (fmol/mg membrane protein) [3]: 80

Molecule: DFDMLRCMLGRVYRPCWQV (peptide, UniProt P20382 147-165, looked up) [melanin concentrating hormone (MCH)]
- EC50 (nM), mobilization of intracellular calcium (FLIPR, fluo-3), COS-7 cells [4]: 60 nM
- inositol phosphate (IP) production, Cos-7 cells co-transfected with MCH1 and a G alpha subunit, 10 µM MCH [4]: 1.4 fold
- EC50 (nM), mobilization of intracellular calcium (FLIPR, fluo-3), COS-7 cells [5]: 3.5 nM
- Max. Response (RFU), mobilization of intracellular calcium (FLIPR, fluo-3), COS-7 cells [5]: 30000 RFU and 25000 RFU
- Max. Response (RFU), mobilization of intracellular calcium (FLIPR, fluo-3), COS-7 cells [6]: 2270 RFU and 1550 RFU
